Measurements published in article PMC5856539.

Molecular target: GFP-tagged Ska complex (Ska complex^Ska3-GFP) (human) (UniProt Q96BD8)
Assay: SEC-MALS

GFP-tagged Ska complex (Ska complex^Ska3-GFP) (from UniProt Q96BD8;Q8WVK7;Q8IX90)
stoichiometry N: 2
